Laboratory results reported in patent US20090098111A1.

Target: Xatr-XatripΔN222-FLAG complex (Xenopus laevis)
Assay: cell-based or functional assay

Xatr-XatripΔN222-FLAG complex (Xenopus laevis), sequence (Q5EGL8 whole entry, stated change not applied, one chain of several): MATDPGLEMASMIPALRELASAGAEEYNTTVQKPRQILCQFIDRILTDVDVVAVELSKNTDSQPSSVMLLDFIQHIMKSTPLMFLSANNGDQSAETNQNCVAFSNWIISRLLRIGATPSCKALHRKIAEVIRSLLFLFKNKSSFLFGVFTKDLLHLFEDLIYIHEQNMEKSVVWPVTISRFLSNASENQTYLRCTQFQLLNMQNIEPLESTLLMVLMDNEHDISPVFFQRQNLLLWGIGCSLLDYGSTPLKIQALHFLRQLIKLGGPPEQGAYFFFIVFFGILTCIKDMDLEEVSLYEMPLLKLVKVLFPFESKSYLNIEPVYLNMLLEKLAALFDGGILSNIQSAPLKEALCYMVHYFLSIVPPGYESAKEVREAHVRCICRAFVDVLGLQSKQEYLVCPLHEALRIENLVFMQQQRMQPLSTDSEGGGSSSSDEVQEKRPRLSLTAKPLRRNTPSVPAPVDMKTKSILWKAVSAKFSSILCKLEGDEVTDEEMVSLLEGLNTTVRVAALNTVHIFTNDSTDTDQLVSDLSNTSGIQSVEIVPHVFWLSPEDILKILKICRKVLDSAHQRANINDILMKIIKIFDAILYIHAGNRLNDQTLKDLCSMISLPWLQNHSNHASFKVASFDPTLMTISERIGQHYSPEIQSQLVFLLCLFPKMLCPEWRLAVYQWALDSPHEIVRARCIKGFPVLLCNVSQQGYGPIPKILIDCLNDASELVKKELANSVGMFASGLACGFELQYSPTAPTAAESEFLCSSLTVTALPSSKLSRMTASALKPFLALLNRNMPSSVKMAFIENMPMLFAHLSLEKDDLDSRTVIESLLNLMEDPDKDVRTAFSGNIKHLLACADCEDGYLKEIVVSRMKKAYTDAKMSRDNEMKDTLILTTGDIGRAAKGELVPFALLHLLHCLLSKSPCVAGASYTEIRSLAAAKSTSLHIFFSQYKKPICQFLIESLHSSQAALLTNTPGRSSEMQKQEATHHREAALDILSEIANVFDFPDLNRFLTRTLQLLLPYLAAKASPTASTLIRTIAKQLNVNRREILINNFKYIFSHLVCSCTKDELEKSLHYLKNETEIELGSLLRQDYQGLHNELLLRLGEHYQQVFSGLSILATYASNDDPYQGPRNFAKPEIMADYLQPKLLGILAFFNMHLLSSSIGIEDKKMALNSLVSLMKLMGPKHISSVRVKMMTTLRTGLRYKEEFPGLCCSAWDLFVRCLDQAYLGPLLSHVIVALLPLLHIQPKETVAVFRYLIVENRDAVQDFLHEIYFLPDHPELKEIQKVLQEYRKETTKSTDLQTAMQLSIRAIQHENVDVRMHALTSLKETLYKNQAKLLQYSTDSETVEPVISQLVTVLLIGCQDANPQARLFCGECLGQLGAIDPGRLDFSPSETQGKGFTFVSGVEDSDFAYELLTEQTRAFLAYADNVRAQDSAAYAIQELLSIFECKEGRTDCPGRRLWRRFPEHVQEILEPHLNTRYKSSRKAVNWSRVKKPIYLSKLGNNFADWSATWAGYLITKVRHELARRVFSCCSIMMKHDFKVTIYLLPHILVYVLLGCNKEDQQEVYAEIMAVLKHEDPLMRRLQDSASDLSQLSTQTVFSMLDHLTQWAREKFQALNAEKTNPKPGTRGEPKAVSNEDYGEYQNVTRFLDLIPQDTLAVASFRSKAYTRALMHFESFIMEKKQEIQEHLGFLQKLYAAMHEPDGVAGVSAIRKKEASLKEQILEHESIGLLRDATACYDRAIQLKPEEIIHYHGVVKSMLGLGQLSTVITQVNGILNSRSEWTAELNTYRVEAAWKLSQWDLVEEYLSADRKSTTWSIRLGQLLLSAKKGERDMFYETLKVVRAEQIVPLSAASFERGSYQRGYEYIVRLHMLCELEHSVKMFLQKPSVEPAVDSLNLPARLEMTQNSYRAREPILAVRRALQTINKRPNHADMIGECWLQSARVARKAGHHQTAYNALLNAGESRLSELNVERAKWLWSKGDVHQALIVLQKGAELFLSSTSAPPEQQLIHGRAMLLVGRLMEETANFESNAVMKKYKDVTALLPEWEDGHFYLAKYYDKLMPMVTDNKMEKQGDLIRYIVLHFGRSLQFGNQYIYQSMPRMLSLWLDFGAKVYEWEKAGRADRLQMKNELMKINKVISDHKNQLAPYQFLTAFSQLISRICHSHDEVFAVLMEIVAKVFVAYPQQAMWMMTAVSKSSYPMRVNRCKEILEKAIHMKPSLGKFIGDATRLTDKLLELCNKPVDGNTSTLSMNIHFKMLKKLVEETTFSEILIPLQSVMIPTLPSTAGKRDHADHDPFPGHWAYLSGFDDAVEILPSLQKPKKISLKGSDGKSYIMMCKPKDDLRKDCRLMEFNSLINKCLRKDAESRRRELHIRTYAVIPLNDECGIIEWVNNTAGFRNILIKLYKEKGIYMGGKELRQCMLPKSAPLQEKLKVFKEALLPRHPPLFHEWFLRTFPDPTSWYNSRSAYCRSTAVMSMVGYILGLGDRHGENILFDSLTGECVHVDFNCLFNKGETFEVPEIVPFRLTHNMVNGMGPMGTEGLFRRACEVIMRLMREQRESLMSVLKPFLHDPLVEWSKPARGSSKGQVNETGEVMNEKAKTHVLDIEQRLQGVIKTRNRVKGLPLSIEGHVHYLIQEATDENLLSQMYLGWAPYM

Substance: His6-XtopBP1 (full-length) (from UniProt Q800K6 1-1513)
- half-maximal induction of kinase activity: 10 to 15 µg/mL
